Test results reported in patent publication US20250043290A1, “RNA SEQUENCES THAT INDUCE FLUORESCENCE OF SMALL MOLECULE FLUOROPHORES, MOLECULAR COMPLEXES, SENSORS, AND METHODS OF USE THEREOF” (CORNELL UNIVERSITY, priority 2021, published 2025).
Entries after “also recorded” stand apart in the source; their conditions may differ.

How the values were obtained:
[1] = Potassium-dependence assay; type: physicochemical; details: buffers with K+, Na+ or Li+
Experimental: For potassium-dependence assay, separate buffers were prepared for K^+, Na^+ and Li^+. HEPES solution was neutralized with KOH, NaOH or LiOH to generate a 1 M solution (pH 7.4). RNA (1 μM final) was diluted in a buffer containing 40 mM HEPES (pH 7.4) and 0.5 mM MgCl2. Then the salts (KCl, NaCl or LiCl) were added to a final concentration of 100 mM to the corresponding solutions. Finally, DFHBI-1T or DFHO was added to the RNA solution at a final concentration of 10 μM and incubated for 20 minutes. The fluorescence was measured on a FluoroMax-4 fluorimeter.

In vitro folding of RNAs = type: physicochemical; details: 40 mM HEPES-KOH (pH 7.4), 100 mM KCl, 0.5 mM MgCl2
Experimental: Briefly, the fluorescence intensities of two solutions were compared: one having excess fluorophore and limiting RNA, and the other with excess RNA and limiting fluorophore. This allows calculation of the percent of the aptamer that is folded. For these experiments, 0.2 μM of fluorophore (or RNA) and 10 μM of RNA (or fluorophore) was used. The signal from the limiting RNA condition was divided by the signal from the limiting fluorophore condition to determine the fraction folded.
To prepare this complex, 10 μM Squash is incubated with 0.2 μM DFHO. By having large excess of Squash, there is likely to be enough folded Squash to form 0.2 μM Squash-DFHO complex. Next, 0.2 μM Squash is incubated with excess (10 μM) DFHO.

[2] = Fluorescence activation of DFHO by aptamers in vitro; type: biochemical
Excerpt: FIG. 2A is a schematic showing the secondary structure of Squash as predicted by mFOLD (Squash: 5′-GGCUACAAGGUGAGCCCAAUAAUACGGUUUGGGUUAGGAUAGGAAGUAGAGCCGUAAACUCUCUAAGCGGUAGUC-3′ (SEQ ID NO:1)). Squash retained the main structural elements of add A-riboswitch aptamer including a 3-way junction and predicted kissing loop interactions (residues at positions 30, 31, 56, and 57, solid gray line). An additional base pair in the kissing loop between loop L2 and L3 (residues at positions 29 and 58, dotted gray line) improved fluorescence activation. […] Shown are the excitation (Ex) and emission (Em) spectra of Squash bound to DFHBI-1T and DFHO (structures shown in inset). Spectra were measured using 20 μM RNA and 2 μM of the indicated fluorogenic dye. […] Fluorescence activation was measured by incubating 200 nM dye and 10 μM RNA. By using a large excess of RNA compared to the fluorophore, it was ensured that the fluorescence observed is from 200 nM RNA-fluorophore complex. Data represent mean values±s.d. for n=3 independent experiments. The values inside the bars indicate fold activation. AU, arbitrary units. FIG. 2D is a graph showing the dissociation constant (Kd) between Squash and DFHO as measured by titration of 50 nM Squash with increasing concentration of DFHO, and fitted using a one-site saturation model. […] FIG. 2E is a bar graph showing the results of an experiment in which Squash-DFHO fluorescence was measured in buffers containing exclusively the indicated cations. […] Similar to the parental add A-riboswitch aptamer (see Lemay et al., “Folding of the Adenine Riboswitch,” Chem. Biol. 13:857-868 (2006), which is hereby incorporated by reference in its entirety), Squash-DFHO has a low magnesium requirement for fluorescence activation. […]
FIG. 6A is a bar graph showing fluorescence activation of DFHO by Squash and its precursors. Fluorescence was measured with 200 nM dye and 10 μM RNA (ex: 495 nm, em: 562 nm, except for Corn; ex: 505 nm, em: 545 nm). […] FIG. 6B is a bar graph showing fluorescence of initial hits after Round 7 of SELEX. In vitro transcribed RNAs from each hit (1 μM final) were mixed with DFHBI-1T (10 μM final) and the fluorescence was measured (ex: 452 nm, em: 503 nm, except for Broccoli; ex: 472 nm, em: 507 nm). […] FIGS. 6C-6D are bar graphs showing fluorescence measurements of the hits with DFHBI-1T after first (FIG. 6C) and second (FIG. 6D) round of directed evolution, measured as in FIG. 6B. […] FIG. 6E is a bar graph showing fluorescence measurements of hits using DFHO after the second round of directed evolution measured as in FIG. 6A. The fluorescence of the hits were normalized against Corn. […] FIG. 6F is a graph showing normalized fluorescence. […] Fluorescence was measured as in FIG. 6A. […]

B1: Squash: fluorogenic RNA aptamer evolved from the add A-riboswitch aptamer, binds DFHBI-1T and DFHO; SEQ ID NO: 12 (SEQ ID NO: 1) (nucleic acid)
chain: AGGUGAGCCCAAUAAUACGGUUUGGGUUAGGAUAGGAAGUAGAGCCGUAAACUCUCUAAGCG
modifications: RNA, backbone not given here
- Fluorescence dependence on K+ [1]: fluorescent in K^+-free buffers; also recorded: not dependent on potassium
- % folded in vitro (In vitro folding of RNAs): approximately 80%
- Fold activation of DFHO fluorescence [2]: 550 fold
- Activation of DFHO compared to Corn ([2]; 200 nM dye and 10 μM RNA): > 2 fold
- Fluorescence intensity with DFHO compared to Corn ([2]; 10 μM RNA, 1 μM DFHO): more than two-fold higher
